Measured values: the Human Domainome abundance scans (Beltran et al. 2025)
± gives the uncertainty stated by the source.

Assay: abundance fitness (aPCA) (normalised: wild type 0, dead -1); higher = more abundant; growth selection in yeast, the domain comes from the species named
Settings: Homo sapiens
With “NEDD4-like E3 ubiquitin-protein ligase WWP2 P477W, O00308” the abundance fitness was -0.138 ± 0.048.
“NEDD4-like E3 ubiquitin-protein ligase WWP2 V459T, O00308” gave an abundance fitness of -0.025 ± 0.059.
Work on “NEDD4-like E3 ubiquitin-protein ligase WWP2 V459N, O00308” yielded an abundance fitness of -0.024 ± 0.076.
In the case of “NEDD4-like E3 ubiquitin-protein ligase WWP2 M440L, O00308”, the abundance fitness is reported as -0.065 ± 0.1.
“NEDD4-like E3 ubiquitin-protein ligase WWP2 G482M, O00308” gave an abundance fitness of -0.121 ± 0.061.
“NEDD4-like E3 ubiquitin-protein ligase WWP2 T455L, O00308” showed an abundance fitness of -0.258 ± 0.048.
Substance “NEDD4-like E3 ubiquitin-protein ligase WWP2 T470L, O00308” has an abundance fitness of -0.437 ± 0.04.
Work on “NEDD4-like E3 ubiquitin-protein ligase WWP2 Y461M, O00308” yielded an abundance fitness of -0.424 ± 0.038.
“NEDD4-like E3 ubiquitin-protein ligase WWP2 P447M, O00308” showed an abundance fitness of -0.203 ± 0.045.
In the case of “NEDD4-like E3 ubiquitin-protein ligase WWP2 F472A, O00308”, the abundance fitness is reported as -0.373 ± 0.052.
In the case of “NEDD4-like E3 ubiquitin-protein ligase WWP2 G489V, O00308”, the abundance fitness is reported as -0.031 ± 0.048.
For “NEDD4-like E3 ubiquitin-protein ligase WWP2 A445C, O00308”, the abundance fitness was 0.056 ± 0.03.
Work on “NEDD4-like E3 ubiquitin-protein ligase WWP2 A445V, O00308” yielded an abundance fitness of -0.001 ± 0.06.
Work on “NEDD4-like E3 ubiquitin-protein ligase WWP2 E451P, O00308” yielded an abundance fitness of -1.34 ± 0.3.
For “NEDD4-like E3 ubiquitin-protein ligase WWP2 D474S, O00308”, the abundance fitness was -0.406 ± 0.061.
In the case of “NEDD4-like E3 ubiquitin-protein ligase WWP2 T483Q, O00308”, the abundance fitness is reported as -0.106 ± 0.071.
Substance “NEDD4-like E3 ubiquitin-protein ligase WWP2 R476C, O00308” has an abundance fitness of -0.198 ± 0.061.
Work on “NEDD4-like E3 ubiquitin-protein ligase WWP2 Q485Y, O00308” yielded an abundance fitness of -0.126 ± 0.072.
“NEDD4-like E3 ubiquitin-protein ligase WWP2 P475E, O00308” gave an abundance fitness of -0.785 ± 0.15.
“NEDD4-like E3 ubiquitin-protein ligase WWP2 G489R, O00308” showed an abundance fitness of -0.035 ± 0.036.
Substance “NEDD4-like E3 ubiquitin-protein ligase WWP2 F462M, O00308” has an abundance fitness of -0.66 ± 0.08.
“NEDD4-like E3 ubiquitin-protein ligase WWP2 G482Y, O00308” showed an abundance fitness of -0.089 ± 0.045.
Work on “NEDD4-like E3 ubiquitin-protein ligase WWP2 P488V, O00308” yielded an abundance fitness of -0.037 ± 0.042.
“NEDD4-like E3 ubiquitin-protein ligase WWP2 T471R, O00308” gave an abundance fitness of -0.62 ± 0.05.
In the case of “NEDD4-like E3 ubiquitin-protein ligase WWP2 G478I, O00308”, the abundance fitness is reported as 0.136 ± 0.073.
“NEDD4-like E3 ubiquitin-protein ligase WWP2 G458A, O00308” showed an abundance fitness of -0.202 ± 0.059.
With “NEDD4-like E3 ubiquitin-protein ligase WWP2 M440R, O00308” the abundance fitness was -0.103 ± 0.087.
For “NEDD4-like E3 ubiquitin-protein ligase WWP2 R460A, O00308”, the abundance fitness was -0.072 ± 0.044.
For “NEDD4-like E3 ubiquitin-protein ligase WWP2 Y454S, O00308”, the abundance fitness was -0.132 ± 0.043.
“NEDD4-like E3 ubiquitin-protein ligase WWP2 K453M, O00308” gave an abundance fitness of -0.006 ± 0.05.
“NEDD4-like E3 ubiquitin-protein ligase WWP2 K473C, O00308” gave an abundance fitness of -0.003 ± 0.066.
Substance “NEDD4-like E3 ubiquitin-protein ligase WWP2 I441C, O00308” has an abundance fitness of -0.166 ± 0.078.
For “NEDD4-like E3 ubiquitin-protein ligase WWP2 A445I, O00308”, the abundance fitness was -0.016 ± 0.049.
For “NEDD4-like E3 ubiquitin-protein ligase WWP2 T455M, O00308”, the abundance fitness was -0.415 ± 0.066.
In the case of “NEDD4-like E3 ubiquitin-protein ligase WWP2 G486F, O00308”, the abundance fitness is reported as -0.205 ± 0.073.
“NEDD4-like E3 ubiquitin-protein ligase WWP2 R493F, O00308” showed an abundance fitness of 0.299 ± 0.12.
“NEDD4-like E3 ubiquitin-protein ligase WWP2 S481C, O00308” showed an abundance fitness of -0.054 ± 0.061.
For “NEDD4-like E3 ubiquitin-protein ligase WWP2 N466I, O00308”, the abundance fitness was -0.261 ± 0.079.
For “NEDD4-like E3 ubiquitin-protein ligase WWP2 P488W, O00308”, the abundance fitness was -0.144 ± 0.048.
“NEDD4-like E3 ubiquitin-protein ligase WWP2 E443I, O00308” gave an abundance fitness of -0.093 ± 0.073.
“NEDD4-like E3 ubiquitin-protein ligase WWP2 P447N, O00308” gave an abundance fitness of -0.11 ± 0.075.
Work on “NEDD4-like E3 ubiquitin-protein ligase WWP2 Q485N, O00308” yielded an abundance fitness of 0.095 ± 0.067.
“NEDD4-like E3 ubiquitin-protein ligase WWP2 G449Q, O00308” showed an abundance fitness of -0.107 ± 0.064.
In the case of “NEDD4-like E3 ubiquitin-protein ligase WWP2 H465V, O00308”, the abundance fitness is reported as -0.357 ± 0.05.
Substance “NEDD4-like E3 ubiquitin-protein ligase WWP2 Q485S, O00308” has an abundance fitness of -0.053 ± 0.046.
Work on “NEDD4-like E3 ubiquitin-protein ligase WWP2 F462Q, O00308” yielded an abundance fitness of -1.02 ± 0.16.
With “NEDD4-like E3 ubiquitin-protein ligase WWP2 V463E, O00308” the abundance fitness was -0.16 ± 0.056.
“NEDD4-like E3 ubiquitin-protein ligase WWP2 P477Y, O00308” gave an abundance fitness of -0.145 ± 0.063.
“NEDD4-like E3 ubiquitin-protein ligase WWP2 Y491R, O00308” showed an abundance fitness of -0.001 ± 0.033.
Work on “NEDD4-like E3 ubiquitin-protein ligase WWP2 R460S, O00308” yielded an abundance fitness of -0.153 ± 0.06.
In the case of “NEDD4-like E3 ubiquitin-protein ligase WWP2 R493N, O00308”, the abundance fitness is reported as -0.666 ± 0.28.
Work on “NEDD4-like E3 ubiquitin-protein ligase WWP2 Q485F, O00308” yielded an abundance fitness of -0.149 ± 0.075.
“NEDD4-like E3 ubiquitin-protein ligase WWP2 E480D, O00308” gave an abundance fitness of 0.015 ± 0.06.
“NEDD4-like E3 ubiquitin-protein ligase WWP2 L446R, O00308” showed an abundance fitness of -0.901 ± 0.054.
In the case of “NEDD4-like E3 ubiquitin-protein ligase WWP2 T471H, O00308”, the abundance fitness is reported as -0.259 ± 0.057.
In the case of “NEDD4-like E3 ubiquitin-protein ligase WWP2 Q442M, O00308”, the abundance fitness is reported as 0.038 ± 0.078.
“NEDD4-like E3 ubiquitin-protein ligase WWP2 T471W, O00308” showed an abundance fitness of -0.521 ± 0.05.
“NEDD4-like E3 ubiquitin-protein ligase WWP2 N466G, O00308” gave an abundance fitness of -0.184 ± 0.051.
With “NEDD4-like E3 ubiquitin-protein ligase WWP2 V463T, O00308” the abundance fitness was -0.209 ± 0.069.
Work on “NEDD4-like E3 ubiquitin-protein ligase WWP2 G489N, O00308” yielded an abundance fitness of -0.008 ± 0.033.
Work on “NEDD4-like E3 ubiquitin-protein ligase WWP2 K473R, O00308” yielded an abundance fitness of -0.081 ± 0.055.
In the case of “NEDD4-like E3 ubiquitin-protein ligase WWP2 E451V, O00308”, the abundance fitness is reported as -0.113 ± 0.031.
In the case of “NEDD4-like E3 ubiquitin-protein ligase WWP2 R468N, O00308”, the abundance fitness is reported as -0.208 ± 0.08.
In the case of “NEDD4-like E3 ubiquitin-protein ligase WWP2 F462K, O00308”, the abundance fitness is reported as -0.789 ± 0.16.
Substance “NEDD4-like E3 ubiquitin-protein ligase WWP2 F479Y, O00308” has an abundance fitness of -0.18 ± 0.08.
For “NEDD4-like E3 ubiquitin-protein ligase WWP2 D464W, O00308”, the abundance fitness was -1.21 ± 0.14.
Substance “Transcription factor SOX-11 R100E, P35716” has an abundance fitness of 0.218 ± 0.12.
With “NEDD4-like E3 ubiquitin-protein ligase WWP2 I441A, O00308” the abundance fitness was -0.113 ± 0.053.
Work on “NEDD4-like E3 ubiquitin-protein ligase WWP2 Y454N, O00308” yielded an abundance fitness of -0.121 ± 0.077.
Work on “NEDD4-like E3 ubiquitin-protein ligase WWP2 F479W, O00308” yielded an abundance fitness of -0.103 ± 0.058.
“NEDD4-like E3 ubiquitin-protein ligase WWP2 K453C, O00308” gave an abundance fitness of -0.226 ± 0.079.
Substance “NEDD4-like E3 ubiquitin-protein ligase WWP2 S481K, O00308” has an abundance fitness of -0.072 ± 0.049.
Work on “NEDD4-like E3 ubiquitin-protein ligase WWP2 T469Q, O00308” yielded an abundance fitness of -0.196 ± 0.06.
For “NEDD4-like E3 ubiquitin-protein ligase WWP2 D492S, O00308”, the abundance fitness was -0.071 ± 0.053.
With “NEDD4-like E3 ubiquitin-protein ligase WWP2 T483Y, O00308” the abundance fitness was -0.123 ± 0.059.
For “NEDD4-like E3 ubiquitin-protein ligase WWP2 F472C, O00308”, the abundance fitness was -0.48 ± 0.067.
For “NEDD4-like E3 ubiquitin-protein ligase WWP2 G486E, O00308”, the abundance fitness was 0.044 ± 0.042.
For “NEDD4-like E3 ubiquitin-protein ligase WWP2 V463H, O00308”, the abundance fitness was -0.422 ± 0.093.
“NEDD4-like E3 ubiquitin-protein ligase WWP2 S487V, O00308” gave an abundance fitness of -0.034 ± 0.035.
Work on “NEDD4-like E3 ubiquitin-protein ligase WWP2 T471G, O00308” yielded an abundance fitness of -0.673 ± 0.052.
Substance “NEDD4-like E3 ubiquitin-protein ligase WWP2 S456L, O00308” has an abundance fitness of -0.169 ± 0.05.
With “NEDD4-like E3 ubiquitin-protein ligase WWP2 P448S, O00308” the abundance fitness was -0.001 ± 0.037.
For “NEDD4-like E3 ubiquitin-protein ligase WWP2 P475S, O00308”, the abundance fitness was -0.852 ± 0.054.
For “NEDD4-like E3 ubiquitin-protein ligase WWP2 E457C, O00308”, the abundance fitness was -0.155 ± 0.073.
Work on “NEDD4-like E3 ubiquitin-protein ligase WWP2 P448C, O00308” yielded an abundance fitness of -0.216 ± 0.074.
Substance “NEDD4-like E3 ubiquitin-protein ligase WWP2 K453D, O00308” has an abundance fitness of -0.029 ± 0.067.
With “NEDD4-like E3 ubiquitin-protein ligase WWP2 F462W, O00308” the abundance fitness was -0.152 ± 0.066.
“NEDD4-like E3 ubiquitin-protein ligase WWP2 A490N, O00308” showed an abundance fitness of -0.195 ± 0.082.
With “NEDD4-like E3 ubiquitin-protein ligase WWP2 A445F, O00308” the abundance fitness was 0.007 ± 0.035.
